Laboratory results reported in patent publication US20230416411A1 (Hoffmann-La Roche, published 2023).

Key:
[1] = target: TYRP1 on the primary melanoma cell line M150543 (human, UniProt P17643 25-537); assay: cell-based or functional assay
[2] = target: T1, EGFRvIII expressed on the cell surface (CHO-EGFRvIII, DK-MG, U87MG-EGFRvIII cells) (human, UniProt P00533 298-1210); assay: flow cytometry on U87MG-EGFRvIII cells, labelled anti-human Fc secondary antibody
T1 construct: also called EGFRvIII on cells
Description: (§1) Cells used for binding experiments were harvested, washed with PBS and resuspended in FACS buffer. The antibody staining was performed in a 96-well round bottom plate. Cells were harvested, counted and 100 000 to 200 000 cells were seeded per well. The plate was centrifuged for 4 min at 400×g and the supernatant was removed. The test antibodies were diluted in FACS buffer and 20 μl of the antibody solution were added to the cells for 30 min at 4° C. To remove unbound antibody the cells were washed twice with FACS buffer before addition of the diluted secondary antibody PE-conjugated AffiniPure F(ab′)2 Fragment goat anti-human IgG Fcg Fragment Specific (Jackson ImmunoResearch, #109-116-170 or #109-116-098). After 30 min incubation on 4° C. unbound secondary antibody was washed away. Before measurement the cells were resuspended in 200 μl FACS buffer and analyzed by flow cytometry using BD Canto II or BD FACS Fortessa.

[3] = target: T1, EGFRvIII expressed on the cell surface …; assay: flow cytometry on U87MG-EGFRvIII cells, IgG PGLALA
Description: as §1

Binder | EC50 of tumor cell killing at 48 h, PBMC donor 1 [1] [nM] | EC50 of tumor cell killing at 48 h, PBMC donor 2 [1] [nM] | EC50 of tumor cell killing at 48 h, PBMC donor 3 [1] [nM] | EC50 (read off the curve) [2] [nM] | EC50 (read off the curve) [3] [nM]
TYRP1 TCB CD3opt (bispecific antibody, human IgG1, kappa, L234A L235A) heavy 1: not shown heavy 2: QVQLVQSGAEVKKPGASVKVSCKASGFNIKDYFLHWVRQAPGQGLEWMGWINPDNGNTVYAQKFQGRVTMTADTSTSTVYMELSSLRSEDTAVYYCTRRDYTYEKAALDYWGQGTLVTVSSASTKGPSVFPLAPSSKSTSGGTAALGCLVEDYFPEPVTVSWNSGALTSGVHTFPAVLQSSGLYSLSSVVTVPSSSLGTQTYICNVNHKPSNTKVDEKVEPKSCDKTHTCPPCPAPEAAGGPSVFLFPPKPKDTLMISRTPEVTCVVVDVSHEDPEVKFNWYVDGVEVHNAKTKPREEQYNSTYRVVSVLTVLHQDWLNGKEYKCKVSNKALGAPIEKTISKAKGQPREPQVCTLPPSRDELTKNQVSLSCAVKGFYPSDIAVEWESNGQPENNYKTTPPVLDSDGSFFLVSKLTVDKSRWQQGNVFSCSVMHEALHNHYTQKSLSLSP light 1: DIQMTQSPSSLSASVGDRVTITCRASGNIYNYLAWYQQKPGKVPKLLIYDAKTLADGVPSRFSGSGSGTDFTLTISSLQPEDVATYYCQHFWSLPFTFGQGTKLEIKRTVAAPSVFIFPPSDRKLKSGTASVVCLLNNFYPREAKVQWKVDNALQSGNSQESVTEQDSKDSTYSLSSTLTLSKADYEKHKVYACEVTHQGLSSPVTKSFNRGEC light 2: EVQLLESGGGLVQPGGSLRLSCAASGFQFSSYAMNWVRQAPGKGLEWVSRIRSKYNNYATYYADSVKGRFTISRDDSKNTLYLQMNSLRAEDTAVYYCVRHTTFPSSYVSYYGYWGQGTLVTVSSASVAAPSVFIFPPSDEQLKSGTASVVCLLNNFYPREAKVQWKVDNALQSGNSQESVTEQDSKDSTYSLSSTLTLSKADYEKHKVYACEVTHQGLSSPVTKSFNRGEC | 0.31 | 0.03 | 0.08 | – | –
EGFRvIII TCB CD3orig (EGFRvIII binder P063.056) (bispecific antibody, human IgG1, kappa, L234A L235A, 2+1 IgG CrossFab, inverted, with charge modifications; also called EGFRvIII TCB P063.056 with CD3orig) heavy 1: not shown heavy 2: EVQLVQSGAEVKKPGESLKISCKGSGYSFDSYWIAWVRQMPGKGLEWMGVIHPYDSDTRYSPSFQGQVTISADKSISTAYLQWSSLKASDTAMYYCARVSRSSYAFDYWGQGTLVTVSSASTKGPSVFPLAPSSKSTSGGTAALGCLVEDYFPEPVTVSWNSGALTSGVHTFPAVLQSSGLYSLSSVVTVPSSSLGTQTYICNVNHKPSNTKVDEKVEPKSCDKTHTCPPCPAPEAAGGPSVFLFPPKPKDTLMISRTPEVTCVVVDVSHEDPEVKFNWYVDGVEVHNAKTKPREEQYNSTYRVVSVLTVLHQDWLNGKEYKCKVSNKALGAPIEKTISKAKGQPREPQVCTLPPSRDELTKNQVSLSCAVKGFYPSDIAVEWESNGQPENNYKTTPPVLDSDGSFFLVSKLTVDKSRWQQGNVFSCSVMHEALHNHYTQKSLSLSP light 1: not shown light 2: EVQLLESGGGLVQPGGSLRLSCAASGFTFSTYAMNWVRQAPGKGLEWVSRIRSKYNNYATYYADSVKGRFTISRDDSKNTLYLQMNSLRAEDTAVYYCVRHGNFGNSYVSWFAYWGQGTLVTVSSASVAAPSVFIFPPSDEQLKSGTASVVCLLNNFYPREAKVQWKVDNALQSGNSQESVTEQDSKDSTYSLSSTLTLSKADYEKHKVYACEVTHQGLSSPVTKSFNRGEC | – | – | – | ~10 | –
TYRP1 TCB CD3orig (bispecific antibody, human IgG1, kappa, L234A L235A) heavy 1: not shown heavy 2: QVQLVQSGAEVKKPGASVKVSCKASGFNIKDYFLHWVRQAPGQGLEWMGWINPDNGNTVYAQKFQGRVTMTADTSTSTVYMELSSLRSEDTAVYYCTRRDYTYEKAALDYWGQGTLVTVSSASTKGPSVFPLAPSSKSTSGGTAALGCLVEDYFPEPVTVSWNSGALTSGVHTFPAVLQSSGLYSLSSVVTVPSSSLGTQTYICNVNHKPSNTKVDEKVEPKSCDKTHTCPPCPAPEAAGGPSVFLFPPKPKDTLMISRTPEVTCVVVDVSHEDPEVKFNWYVDGVEVHNAKTKPREEQYNSTYRVVSVLTVLHQDWLNGKEYKCKVSNKALGAPIEKTISKAKGQPREPQVCTLPPSRDELTKNQVSLSCAVKGFYPSDIAVEWESNGQPENNYKTTPPVLDSDGSFFLVSKLTVDKSRWQQGNVFSCSVMHEALHNHYTQKSLSLSP light 1: DIQMTQSPSSLSASVGDRVTITCRASGNIYNYLAWYQQKPGKVPKLLIYDAKTLADGVPSRFSGSGSGTDFTLTISSLQPEDVATYYCQHFWSLPFTFGQGTKLEIKRTVAAPSVFIFPPSDRKLKSGTASVVCLLNNFYPREAKVQWKVDNALQSGNSQESVTEQDSKDSTYSLSSTLTLSKADYEKHKVYACEVTHQGLSSPVTKSFNRGEC light 2: EVQLLESGGGLVQPGGSLRLSCAASGFTFSTYAMNWVRQAPGKGLEWVSRIRSKYNNYATYYADSVKGRFTISRDDSKNTLYLQMNSLRAEDTAVYYCVRHGNFGNSYVSWFAYWGQGTLVTVSSASVAAPSVFIFPPSDEQLKSGTASVVCLLNNFYPREAKVQWKVDNALQSGNSQESVTEQDSKDSTYSLSSTLTLSKADYEKHKVYACEVTHQGLSSPVTKSFNRGEC | 0.44 | 0.05 | 0.14 | – | –
EGFRvIII antibody P063.056, human IgG1 PGLALA (antibody, V domains shown, Anti-EGFRvIII PGLALA IgG) VH: EVQLVQSGAEVKKPGESLKISCKGSGYSFDSYWIAWVRQMPGKGLEWMGVIHPYDSDTRYSPSFQGQVTISADKSISTAYLQWSSLKASDTAMYYCARVSRSSYAFDYWGQGTLVTVSS VL: not shown | – | – | – | ~4 | ~5
EGFRvIII TCB P056.021 (CD3orig) (bispecific antibody, V domains shown, also called parental EGFRvIII TCB P056.021; P056.021 EGFRvIII TCB with CD3orig) VH 1: EVQLVQSGAEVKKPGESLKISCKGSGYSFDSYWIAWVRQMPGKGLEWMGVIHPYDSDTRYSPSFQGQVTISADKSISTAYLQWSSLKASDTAMYYCARVSRSSYAFDYWGQGTLVTVSS VL 1: not shown VH 2: not shown VL 2: QAVVTQEPSLTVSPGGTVTLTCGSSTGAVTTSNYANWVQEKPGQAFRGLIGGTNKRAPGTPARFSGSLLGGKAALTLSGAQPEDEAEYYCALWYSNLWVFGGGTKLTVL | – | – | – | ~5 | –
